From doi:10.1101/2022.10.11.511805 (bioRxiv, 2022)

Columns and labels:
[1] = target: T1, cleaved GP (GPCL): EBOV GP treated with thermolysin, glycan cap removed (Zaire ebolavirus, Mayinga-76, UniProt Q05320); assay: SPR
[2] = target: T1, cleaved GP (GPCL): EBOV GP treated with …; assay: SEC
Target sequence in this assay (Q05320 33-501, chain 1 of 2): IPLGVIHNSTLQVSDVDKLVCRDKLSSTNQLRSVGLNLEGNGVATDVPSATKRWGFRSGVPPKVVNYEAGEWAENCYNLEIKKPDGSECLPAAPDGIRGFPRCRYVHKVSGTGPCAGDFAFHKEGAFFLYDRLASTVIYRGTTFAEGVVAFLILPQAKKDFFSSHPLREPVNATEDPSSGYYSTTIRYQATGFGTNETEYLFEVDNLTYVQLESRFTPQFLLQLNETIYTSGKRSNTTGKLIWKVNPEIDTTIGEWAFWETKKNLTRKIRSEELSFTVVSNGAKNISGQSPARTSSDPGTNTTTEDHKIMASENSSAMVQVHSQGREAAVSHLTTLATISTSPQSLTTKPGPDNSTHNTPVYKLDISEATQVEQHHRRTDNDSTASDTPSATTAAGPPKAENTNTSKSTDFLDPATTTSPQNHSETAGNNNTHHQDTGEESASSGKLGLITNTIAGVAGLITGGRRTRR
Target sequence in this assay (Q05320 33-650, chain 2 of 2): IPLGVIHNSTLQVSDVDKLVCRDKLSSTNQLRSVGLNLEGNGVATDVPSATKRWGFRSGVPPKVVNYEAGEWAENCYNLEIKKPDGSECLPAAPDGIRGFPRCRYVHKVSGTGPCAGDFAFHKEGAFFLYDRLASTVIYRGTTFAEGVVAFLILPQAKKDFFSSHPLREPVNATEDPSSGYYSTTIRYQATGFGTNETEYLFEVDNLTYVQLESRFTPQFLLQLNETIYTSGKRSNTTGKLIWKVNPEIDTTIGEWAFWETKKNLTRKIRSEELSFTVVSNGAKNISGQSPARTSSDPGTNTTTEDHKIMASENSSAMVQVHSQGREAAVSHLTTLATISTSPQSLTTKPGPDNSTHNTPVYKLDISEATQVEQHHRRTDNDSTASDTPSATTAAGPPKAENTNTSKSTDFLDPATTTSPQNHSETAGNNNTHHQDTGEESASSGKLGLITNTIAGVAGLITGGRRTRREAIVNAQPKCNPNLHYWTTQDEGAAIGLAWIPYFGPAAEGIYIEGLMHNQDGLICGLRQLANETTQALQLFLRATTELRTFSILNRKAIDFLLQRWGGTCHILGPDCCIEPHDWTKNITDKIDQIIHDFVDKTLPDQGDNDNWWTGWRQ

| Binder | Kd [1] [nM] | fold reduction of the binding half-life relative to GP [1] [fold] | binding result [2] |
| --- | --- | --- | --- |
| REGN3471 (odesivimab) (antibody, V domains shown) VH: EVQLVESGGGLVQPGGSLRLSCAASGFTFSSYDMHWVRQATGKGLEWVSAIGTAGDTYYPGSVKGRFTISRENAKNSLYLQMNSLRAGDTAVYYCARTWFGELYFDYWGQGTLVTVSS VL: not shown | 15.8 | 4 |  |
| REGN3470 Fab (Fab, V domains shown) VH: QVQLVESGGGVVQPGRSLRLSCAASGFTFNNYGMHWVRQAPGMGLEWVAVIWHDGSDKYYADSVKGRFTISRDNSKNTLYLQMNSLRAEDTAVYYCARNWNLFDYWGQGTLVTVSS VL: DIQMTQSPSSLSASVGDRITITCRASQSISTYLHWYQQKPGKAPKLLIYAASTLQSGVPSRFSGSGSGTDFTLTISSLQPEDFATYYCQQSFSTPPINFGQGTKLEIK |  |  | no binding |
| REGN3479 (maftivimab) (antibody, V domains shown) VH: EVQLVESGGGLVQPGGSLRLSCAASGFTSSSYAMNWVRQAPGKGLEWVSTISGMGGSTYYADSVKGRFTISRDNSKNTLYLQMNSLRAEDTAVYYCAKRGYPHSFDIWGQGTMVTVSS VL: not shown | 0.14 |  |  |
